Molecular target: P-GltPh (S279E/D405N) (UniProt O59010)
Experiment: cryo-EM structure

- stoichiometry N: 3
Substance: P-GltPh (S279E/D405N) (from UniProt O59010 1-417) (natural protein)
